Reference: patent publication US20110014656A1 (ZymoGenetics, published 2011)
Where “and” joins values, the source holds several entries; their conditions need not be identical. Equal values may be shown once.

What was measured:
[1] = biological target: T1, human IL-17RC, x1 splice variant, on transfected cells (human, UniProt Q8NAC3 21-791); experiment: saturation binding, iodinated cytokine on transfected BHK cells
T1 construct: Expressed on BHK, 293F or NIH3T3 cells; also called hIL-17RC; hIL-17RC (x1)
T1 sequence: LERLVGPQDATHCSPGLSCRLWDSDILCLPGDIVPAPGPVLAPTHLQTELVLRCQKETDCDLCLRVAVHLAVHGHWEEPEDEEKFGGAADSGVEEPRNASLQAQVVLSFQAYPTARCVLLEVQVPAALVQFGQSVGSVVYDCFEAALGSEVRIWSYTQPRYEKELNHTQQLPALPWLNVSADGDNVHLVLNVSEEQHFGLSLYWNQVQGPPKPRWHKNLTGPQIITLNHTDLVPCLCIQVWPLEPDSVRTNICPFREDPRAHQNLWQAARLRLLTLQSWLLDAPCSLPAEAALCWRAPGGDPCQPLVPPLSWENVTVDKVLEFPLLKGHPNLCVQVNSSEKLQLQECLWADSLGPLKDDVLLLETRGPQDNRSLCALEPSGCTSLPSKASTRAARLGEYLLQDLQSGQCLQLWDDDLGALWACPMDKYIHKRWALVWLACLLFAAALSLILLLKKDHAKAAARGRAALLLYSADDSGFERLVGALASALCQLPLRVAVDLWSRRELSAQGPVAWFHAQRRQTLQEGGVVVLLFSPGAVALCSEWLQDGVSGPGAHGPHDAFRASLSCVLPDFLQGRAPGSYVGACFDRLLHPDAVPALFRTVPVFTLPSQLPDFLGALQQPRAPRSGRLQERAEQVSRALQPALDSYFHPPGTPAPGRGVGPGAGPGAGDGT

[2] = biological target: T1, human IL-17RC, x1 splice variant, on …; experiment: cell-based or functional assay
[3] = biological target: T2, human IL-17 receptor (IL-17RA) on transfected cells (human, UniProt Q96F46 33-320); experiment: cell-based or functional assay
T2 sequence: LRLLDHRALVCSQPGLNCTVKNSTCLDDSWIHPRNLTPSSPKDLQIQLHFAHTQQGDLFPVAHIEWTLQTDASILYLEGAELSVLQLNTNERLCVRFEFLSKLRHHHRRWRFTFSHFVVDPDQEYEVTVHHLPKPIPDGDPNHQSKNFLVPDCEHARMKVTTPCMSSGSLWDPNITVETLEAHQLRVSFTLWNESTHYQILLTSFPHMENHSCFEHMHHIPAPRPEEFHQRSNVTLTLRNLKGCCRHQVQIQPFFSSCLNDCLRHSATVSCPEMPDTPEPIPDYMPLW

[4] = biological target: T1, human IL-17RC, x1 splice variant, on …; experiment: competition, 100x molar cold ligand vs 125I-IL-17A on BHK hIL-17RC cells
Procedure: (§1) Cold competitors were added in 100 fold molar excess. […] Wells were incubated on ice for 1-hour followed by two washes with PBS (Invitrogen 20012-027) and one wash with a high salt solution (1.5M NaCL, 50 mM HEPES pH 7.4). Wells were extracted with 500 ul of 0.8M NaOH for 30 min. at room temperature and counts per minute were measured in a gamma counter (Packard Cobra II A5005).

[5] = biological target: T1, human IL-17RC, x1 splice variant, on …; experiment: competition, 100x molar cold ligand vs 125I-IL-17F on BHK hIL-17RC cells
Procedure: as §1

[6] = biological target: T1, human IL-17RC, x1 splice variant, on …; experiment: saturation binding, 125I-cytokine on BHK cells; high affinity site of a two-site fit
Procedure: as §1
Transfected BHK cells were plated into 24-well dishes as in one. […] Separately, 100 fold molar excess of cold ligand was added at each dilution point. Cells were washed, extracted and counted as in one. Specific counts per minute were plotted against concentration of radiolabeled ligand added by subtracting the 100 fold excess counts from the uncompeted counts at each dilution point. These normalized data were plotted to generate saturation binding curves for each combination of radiolabeled ligand and transfected BHK cells.

murine IL-17RA-Ig = biological target: T3, murine IL-17RA-Ig (mouse, UniProt Q60943 32-322); experiment: Biacore, soluble receptor captured on chip, cytokine as analyte
T3 construct: also called mL-17RA-Ig; mIL-17RA-Fc; not shown: Ig/Fc part
T3 sequence (looked up): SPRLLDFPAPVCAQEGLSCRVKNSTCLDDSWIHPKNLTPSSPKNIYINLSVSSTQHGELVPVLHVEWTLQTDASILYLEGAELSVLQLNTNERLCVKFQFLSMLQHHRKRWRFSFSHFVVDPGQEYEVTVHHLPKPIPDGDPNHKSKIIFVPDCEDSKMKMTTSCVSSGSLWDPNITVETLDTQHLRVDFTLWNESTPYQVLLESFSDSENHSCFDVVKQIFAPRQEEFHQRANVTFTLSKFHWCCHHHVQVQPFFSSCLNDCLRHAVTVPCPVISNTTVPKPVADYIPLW

[7] = biological target: T4, human IL-17RC, x4 splice variant, on transfected cells (human, UniProt Q8NAC3 21-791); experiment: FACS, biotinylated cytokine on transiently transfected 293F cells
T4 construct: Expressed on 293F, BHK or NIH3T3 cells; also called hIL-17RCx4; hIL-17RCX4
T4 sequence: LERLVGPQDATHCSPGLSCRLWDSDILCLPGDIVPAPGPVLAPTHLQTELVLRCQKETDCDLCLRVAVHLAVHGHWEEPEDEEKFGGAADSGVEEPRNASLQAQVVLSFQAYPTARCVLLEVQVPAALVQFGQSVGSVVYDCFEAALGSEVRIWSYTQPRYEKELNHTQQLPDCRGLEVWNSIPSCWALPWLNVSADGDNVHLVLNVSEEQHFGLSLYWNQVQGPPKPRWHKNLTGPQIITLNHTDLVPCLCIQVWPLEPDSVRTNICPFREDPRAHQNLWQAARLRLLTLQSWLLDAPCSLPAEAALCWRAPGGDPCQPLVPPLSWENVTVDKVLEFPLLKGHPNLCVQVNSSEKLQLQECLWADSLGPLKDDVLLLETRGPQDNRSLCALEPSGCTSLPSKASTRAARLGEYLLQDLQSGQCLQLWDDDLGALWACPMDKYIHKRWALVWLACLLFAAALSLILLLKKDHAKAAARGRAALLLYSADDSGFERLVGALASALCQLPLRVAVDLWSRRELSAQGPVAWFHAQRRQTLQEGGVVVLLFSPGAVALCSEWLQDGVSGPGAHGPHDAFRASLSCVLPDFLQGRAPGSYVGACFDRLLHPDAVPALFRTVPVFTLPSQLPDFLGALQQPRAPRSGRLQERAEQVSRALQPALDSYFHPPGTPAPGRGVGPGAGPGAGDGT
Description: (§2) However, the other splice variants tested either included or excluded hIL-17RC exon 12. These variants were designated hIL-17RCx1 (identical in exon composition to mouse x1 above), hIL-17RCx4 (identical in exon composition to mouse x4 above), hIL-17RCx2, and hIL-17RCx7.

[8] = biological target: T1, human IL-17RC, x1 splice variant, on …; experiment: as above
Description: as §2

B1: human IL-17F (ligand)
chain: RKIPKVGHTFFQKPESCPPVPGGSMKLDIGIINENQRVSMSRNIESRSTSPWNYTVTWDPNRYPSEVVQAQCRNLGCINAQGKEDISMNSVPIQQETLVVRRKHQGCSVSFQLEKVLVTVGCTCVTPVIHHVQ
notes: also called hIL-17F; hIL17F
With B1 as the binder, how does the Kd [1] read?
Its Kd is 1 nM.

What about the “EC50, luciferase in nih3t3/kz142.8/hcytor14X1 cells” value [2] of the same binder?
The value was 0.61 ng/mL.

And the “fold more potent EC50 in the recombinant line than in the parental line” value [2]?
The value was 17 fold.

And the “EC50, luciferase in nih3t3/kz142.8/IL-17R cells” value [3]?
The value was 12.4 ng/mL.

And the “fold reduction of 125I-IL-17A binding” value [4]?
Its value is roughly 7 fold.

What about the “fold reduction of 125I-IL-17F binding” value [5] of the same binder?
The value was roughly 5 fold.

What about the Kd [6] of the same binder?
The Kd was 0.05 nM and 0.06 nM and 0.08 nM.

B2: murine IL-17A (ligand)
chain: AAIIPQSSACPNTEAKDFLQNVKVNLKVFNSLGAKVSSRRPSDYLNRSTSPWTLHRNEDPDRYPSVIWEAQCRHQRCVNAEGKLDHHMNSVLIQQEILVLKREPESCPFTFRVEKMLVGVGCTCVASIVRQAA
notes: also called mIL-17A; mIL17A
For B2, which “EC50, luciferase in nih3t3/kz142.8/hcytor14x1 cells” value [2] is on record?
The value was roughly 4 ng/mL.

What about the Kd (murine IL-17RA-Ig) of the same binder?
Its Kd is 0.069 nM and 0.072 nM.

Does B2 bind [7]?
Result: no binding

Does B2 bind [8]?
Result: no binding
